Results taken from paper PMC9563779 (Cancers, 2022).

How the values were obtained:
[1] = molecular target: T1, 611-CTF-p95HER2 (611-carboxy terminal fragment of HER2) on p95HER2-T47D cells (Homo sapiens, UniProt P04626); experiment: flow cytometry on cells; Oslo-2 mAb 10 μg/mL on cell lines, 30 min at 4 °C in FACS buffer (PBS pH 7, 2% FBS, 2 mM EDTA), labelled secondary antibody; settings: one partner purified
T1 construct: source: p95HER2-T47D cells (C2069, Crown Bioscience); cultured cells and orthotopic xenograft tumours in NSG mice

[2] = molecular target: T2, full-length HER2 in transduced MDA-MB-468 cells (Homo sapiens, UniProt P04626); experiment: as above; settings: one partner purified
T2 construct: full-length HER2 expressed from the plasmid pBABEpuro-ERBB2; source: cultured cells and subcutaneous xenograft tumours

[3] = molecular target: T3, full-length HER2 (endogenous) (Homo sapiens, UniProt P04626); experiment: as above; settings: one partner purified
T3 construct: human epidermal growth factor receptor 2 (HER2), full-length, on cells and in tissue sections; also called HER2 full-length; full-length HER2 receptor; source: endogenous, SK-BR-3 and A549 cells; endogenous, human breast carcinoma biopsy and normal human tissues

[4] = molecular target: T4, extracellular domain of p95HER2 peptide with a poly-histidine-tag in the C-terminus (Homo sapiens); experiment: SPR; Oslo-2 mAb (5 μg/mL) covalently immobilised by amine coupling on a CM5 chip, anti-HER2 (cytopla-HER2) mAb on the reference flow cell; p95HER2 ECD peptide as analyte, 0.6 to 2500 nM; HBS-EP+ buffer; 25 °C; Biacore T200; global fit to the 1:1 bimolecular interaction model; settings: both partners purified
T4 construct: printed with HHHHHH at the C-terminus; also called p95HER2 ECD peptide; source: synthetic peptide (GenScript); not shown: His6, C-terminal, kept

[5] = molecular target: T5, N-terminally truncated 20 mer without proline-612 (613-622) (Homo sapiens); experiment: peptide or protein array; peptides immobilised on a cellulose membrane (PepSpots); Oslo-2 mAb 5 μg/mL in 5% nonfat skim milk, three hours at RT; HRP-conjugated secondary antibody, chemiluminescence; settings: both partners purified
T5 construct: source: synthetic peptide, immobilised on a cellulose membrane (PepSpots, JPT Peptide Technologies)
T5 chain: IWKFPDEEGA

[6] = molecular target: T6, N-terminally truncated 20 mer without isoleucine-613 (614-622) (Homo sapiens); experiment: as above; settings: both partners purified
T6 construct: source: synthetic peptide, immobilised on a cellulose membrane (PepSpots, JPT Peptide Technologies)
T6 chain: WKFPDEEGA

[7] = molecular target: T7, peptide 1 of the overlapping 15mer peptides covering the p95HER2 extracellular domain (Homo sapiens, UniProt P04626); experiment: as above; settings: both partners purified
T7 construct: first 15mer of the p95HER2 extracellular domain, containing MPIW; source: synthetic peptide, immobilised on a cellulose membrane (PepSpots, JPT Peptide Technologies)
T7 chain: MPIWKFPDEEGACQP

[8] = molecular target: T8, 20 mer epitope peptide GVKPDLSYMPIWKFPDEEGA (region 603-622 in HER2) (Homo sapiens); experiment: as above; settings: both partners purified
T8 construct: region 603-622 in HER2, spanning the N terminus of the p95HER2 extracellular domain; source: synthetic peptide, immobilised on a cellulose membrane (PepSpots, JPT Peptide Technologies)
T8 chain: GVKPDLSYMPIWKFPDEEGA

[9] = molecular target: T9, N-terminally truncated 20 mer without methionine-611 (612-622) (Homo sapiens); experiment: as above; settings: both partners purified
T9 construct: source: synthetic peptide, immobilised on a cellulose membrane (PepSpots, JPT Peptide Technologies)
T9 chain: PIWKFPDEEGA

[10] = molecular target: T1, 611-CTF-p95HER2 (611-carboxy terminal …); experiment: flow cytometry on cells; monoclonal hybridoma supernatant (1:50 dilution) on cell lines, 30 min at 4 °C in FACS buffer, goat anti-rat-PE; settings: partners not purified

B1: Oslo-2 mAb (antibody, V domains shown)
VH: EVQILETGGGLVKPGGSLRLSCATSGFNFNDYFMNWVRQAPGKGLEWIAQIRNKNYNYATYFAESLEGRFTISRDDSKSSVYLQVNSLRAEDTALYYCTELRYDYWGQGVMVTVSS
VL: DIVMTQSPFSLAVSEGEMVTINCKSSQSLLSSGNQKNNLAWYQQKPGQSPKLLIYYASTRQSGVPDRFIGSGSGTDFTLTISDVQAEDLADYYCLQHYSSPYTFGAGTKLELK
notes: variable heavy domain; variable light domain; On the peptide membrane Oslo-2 was detected with a horse anti-mouse secondary antibody, so the constant regions may be mouse (surmise); also called Oslo-2 Ab; Oslo-2 (p95HER2) antibody
B1: binds [1]; no binding (tested: 10 μg/mL) [2]; no binding (tested: 10 μg/mL) [3]. For the same binder, the Kd [4] was 2 nM, the binding result [5] was “binds” and the binding result [6] was “binds”. B1: binds [7]; binds [8]; binds [9].

B2: mClone 1 (monoclonal hybridoma culture supernatant) (antibody, V domains shown)
VH: EVQILETGGGLVKPGGSLRLSCATSGFNFNDYFMNWVRQAPGKGLEWIAQIRNKNYNYATYFAESLEGRFTISRDDSKSSVYLQVNSLRAEDTALYYCTELRYDYWGQGVMVTVSS
VL: DIVMTQSPFSLAVSEGEMVTINCKSSQSLLSSGNQKNNLAWYQQKPGQSPKLLIYYASTRQSGVPDRFIGSGSGTDFTLTISDVQAEDLADYYCLQHYSSPYTFGAGTKLELK
notes: constant region of the rat hybridoma antibody; source: rat hybridoma (B-cells fused with Ag8 myeloma cells), sub-cloned by limited dilution, culture supernatant
B2: binds [10].
